# Test results published in patent publication US20240159767A1.
# Biological target: PKA substrate fused to MinD (phosphorylated form) (Escherichia coli)
# Test: power ratio of live-cell fluorescence oscillations, saturating isoprenaline
substance,measurement,value
FHA1-mCerulean (from UniProt P22216 22-162),fold increase of the power ratio of the FHA1 signal to the MinDE carrier after a saturating dose of isoprenaline against resting cells,< 7 fold
